Results from the supplement of paper PMC10724198.
± gives the standard deviation of the averaged measurements.

System: Saccharomyces cerevisiae
Assay: protein stability index of tFT-peptide fusion (C-terminal peptide) (PSI (0-1 scale)); higher = more stable (slower turnover)
Conditions: genetic background: wild type; temperature: 30 C
Description: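 Multiplexed protein stability (MPS) profiling in S. cerevisiae. Random 12-aa peptides (tFT-X12 library) are fused to the C-terminus of a sfGFP-mCherry tandem fluorescent timer, after mCherry and a GGGS linker. Cells are FACS-sorted into 8 mCherry/sfGFP bins and deep-sequenced. The protein stability index (PSI) is the read-weighted bin average, scaled from 0 (unstable) to 1 (stable). Only peptides with >10 reads are reported; cells were grown at 30 °C in SC-His with glucose.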
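Further: PSI is a weighted mean of sequencing reads over stability bins, variants kept only with over 10 reads, mCherry proximal and sfGFP distal, peptide attached via GGGS linker.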

Sequence	protein stability index
GVDGVLGGWGCG	0.786 ± 0.1
GVDVSCVSPFGG	0.705 ± 0.03
GVECGSVCGGGG	0.651 ± 0.013
GVEFKVVSFVVD	0.646 ± 0.094
GVEVSVFFFHFL	0.576 ± 0.097
GVFCWVGLSAFL	0.5866 ± 0.004
GVGGGEECHGVG	0.556 ± 0.018
GVGGGGACRPVG	0.709 ± 0.15
GVGGGMGMGERW	0.788 ± 0.18
GVGGGMWCGFGV	0.701 ± 0.074
GVGLKMLSVGDI	0.6119 ± 0.002
GVGLSGVGGLGR	0.6439 ± 0.004
GVGSVADWGGVG	0.599 ± 0.018
GVGVHAASGGEN	0.723 ± 0.009
GVGVLGGGYMCL	0.647 ± 0.069
GVGWFGRGTVGW	0.676 ± 0.035
GVGYCCVSGGLG	0.722 ± 0.011
GVIGPFSHDGCA	0.662 ± 0.021
GVILPVVKARLA	0.472 ± 0.042
GVLGLDLSVVGG	0.716 ± 0.035
GVLGSIQLFLGI	0.699 ± 0.0091
GVLPWQYSSFLS	0.694 ± 0.058
GVLRGNRITECF	0.716 ± 0.049
GVLVAFLWGESV	0.593 ± 0.018
GVRDGGTRGSEG	0.7012 ± 0.0055

Sequence	protein stability index
GVRGGWVVNRGV	0.732 ± 0.026
GVRLSPTACSSI	0.678 ± 0.071
GVRRAAFAKYGG	0.655 ± 0.0071
GVRRSQSCPVRS	0.7065 ± 0.0051
GVRYFKWGCTHG	0.684 ± 0.029
GVSAPGDAGAVP	0.654 ± 0.015
GVSCGWVAHARW	0.694 ± 0.061
GVSSGVSFVLGH	0.702 ± 0.0083
GVSVGGSSGGSG	0.6868 ± 0.0048
GVSVSSSFLNGC	0.669 ± 0.019
GVTGGWVVNRGV	0.7054 ± 0.007
GVTGRGVSRVYG	0.671 ± 0.013
GVTLKSPTGRVF	0.666 ± 0.097
GVVGGVGGFFGC	0.754 ± 0.0013
GVVGLEVLGRWG	0.687 ± 0.047
GVVMMGERGGER	0.685 ± 0.049
GVWREVGNIEEV	0.701 ± 0.0099
GVWWRRVVFGRR	0.696 ± 0.075
GWCTLASGLFTT	0.673 ± 0.1
GWGGVWGRVWWR	0.563 ± 0.05
GWGKWGVGIGRG	0.694 ± 0.032
GWIAEFGLAGGP	0.661 ± 0.0089
GWLGPGCVGRMQ	0.733 ± 0.068
GWPLWGAVRGFW	0.71 ± 0.035
GWPVGSLKTPCR	0.726 ± 0.046

Sequence	protein stability index
GWRFGKVCGLGG	0.726 ± 0.07
GWSTKSTYHKPT	0.732 ± 0.025
GYFSTFIKSSML	0.715 ± 0.029
GYKLLIEGNWEV	0.756 ± 0.025
GYRRTGGLHGVV	0.716 ± 0.034
GYRSLADSIDLL	0.7244 ± 0.0066
GYRSSWRALRVG	0.564 ± 0.076
GYTDPYPAAAPS	0.639 ± 0.056
GYVHPSWLWANT	0.732 ± 0.033
GYVVVGGGGWLG	0.6754 ± 0.0025
GYYPVALDYKLR	0.708 ± 0.05
HCFASLITSIVH	0.535 ± 0.025
HCSVSGLQLFMD	0.699 ± 0.019
HCYKRGSCTSLI	0.631 ± 0.087
HDPRVGDNAHFV	0.641 ± 0.099
HFFSFLACFVDL	0.632 ± 0.054
HFLPFSLLLFPP	0.755 ± 0.14
HFPLRIYSPNGP	0.697 ± 0.095
HFPLSLSPPPPP	0.721 ± 0.032
HFQASRLLCEGD	0.638 ± 0.026
HFVAALVLLTLD	0.72 ± 0.17
HFVAPLSPRGSL	0.633 ± 0.038
HGAPLPTSAPKH	0.7271 ± 0.0031
HGTAQGVRRQGV	0.711 ± 0.16
HGWACSRSPCAV	0.756 ± 0.048

Sequence	protein stability index
HHAHRLPTLATS	0.693 ± 0.074
HHAKWAHGTPAQ	0.681 ± 0.022
HHSLLLPPPPPP	0.673 ± 0.019
HILDDHVRISNA	0.685 ± 0.0096
HIPHSKPRTSLP	0.734 ± 0.048
HKDVRGRSLSRM	0.7183 ± 0.0024
HKENTKEKKKRE	0.693 ± 0.043
HLFPSPPPSTLP	0.495 ± 0.045
HLFVPGAFFFFS	0.718 ± 0.073
HLGIKGFHIFGY	0.69 ± 0.0071
HLIPSPPTPPRP	0.664 ± 0.0072
HLKPTPPLPPNT	0.67 ± 0.017
HLLPRPIRPSTP	0.664 ± 0.074
HLLSPPLPPSPA	0.728 ± 0.039
HLPPLPRPPSLT	0.7049 ± 0.0069
HLPSLLRPPFLL	0.7038 ± 0.0018
HLPSPSLPSPYF	0.7648 ± 0.0017
HLPSSRHNPLQN	0.695 ± 0.037
HLPWTGTPHATV	0.737 ± 0.029
HLRSALSVHPTL	0.707 ± 0.051
HLSPPPLMPPCC	0.759 ± 0.067
HNDYKGSQIDNG	0.573 ± 0.046
HNIQHKIHTKSR	0.761 ± 0.039
